4 molecules from patent US11591580B2, “K85 mutation-containing plant EPSPS mutant, and encoding gene and application thereof” (GEVOTO LLC, priority 2017, dated 2023) can be followed below.

One experiment concerns double knockout E. coli. As to the kind of experiment: growth of E. coli transformed by genes encoding soybean EPSPS (wild type and mutants) in culture media containing different glyphosate concentrations (Example 7, FIG. 3). It counts as cell-based.
The test system of experiment [1] is transgenic rice seedlings. Put plainly: glyphosate resistance of the EPSPS mutant in transgenic rice plants sprayed with glyphosate (Example 8, Table 1). As to conditions: for glyphosate resistance of transformed rice seedlings (in words): glyphosate sprayed at the 1× dosage; for glyphosate resistance / survival of transformed rice seedlings (in words): 2× glyphosate dosage. The experiment is classed as in vivo, rice (Nipponbare). An excerpt: A method for detecting the glyphosate resistance of the G1 soybean EPSPS mutant (SEQ ID NO: 20), G2 soybean EPSPS mutant (SEQ ID NO: 22) and G3 soybean EPSPS mutant (SEQ ID NO: 24) provided in Example 7, the R1 rice EPSPS mutant (SEQ ID NO: 4) provided in Example 5, and the Z1 maize EPSPS mutant (SEQ ID NO: 12) provided in Example 6 in the transgenic rice is as follows:
The plasmids (containing the EPSPS mutant gene) of the monoclonal resistant bacteria of pADV5-EPSPS in Examples 1-7 were extracted by a conventional method, followed by double enzyme digestion by Pac1 and BstEII, the small fragments were collected, and then the small fragments were ligated, using T4 DNA ligase, to the pGVP1 vectors that had undergone the same double enzyme digestion, to obtain a pGVP1-EPSPS vector having a structure as shown in FIG. 8.
In the present example, the glyphosate resistance of the EPSPS mutant in transgenic rice plants were verified. An experiment method is as follows:
The transgenic rice seedlings transplanted were uniformly arranged in a same experiment area (preventing leaves from overlapping). The areas occupied by the experiment groups and the control group were calculated, and according to the areas, glyphosate was sprayed at a 1× dosage of 1060 g/hectare (0.106 g/m^2). 2× dosage was 2120 g/hectare, 5× dosage was 5300 g/hectare, and 20× dosage was 21200 g/hectare.
Commercially available Roundup® 41% ammonium glyphosate was used. Roundup® ammonium glyphosate with corresponding volumes was taken according to the above sprayed concentrations, then diluted with 20 times of volume of water, and then uniformly sprayed on the plants in the experiment groups and the control group. After leaf surfaces were dry, the plants were moved into greenhouse or outdoor to cultivate.
After the glyphosate was sprayed at the 1× dosage, growth states of the plants in each group were observed and recorded on a 10th day, and glyphosate was sprayed to the survived plants at the 2× dosage. The growth states of the plants in each group were observed and recorded 10 days later, and glyphosate was sprayed to the survived plants at the 5× dosage. The growth states of the plants in each group were observed and recorded 10 days later, and glyphosate was sprayed to the survived plants at the 20× dosage. The growth states of the plants in each group were observed and recorded 10 days later, and results are shown in Table 1, wherein corresponding numbers of plants denoted by −, +, ++ and +++ are listed, and “%++&+++” is percentage of plant having medium and high glyphosate resistance to the total number of plants observed.

Setting [2] is: culture media containing 1 mM glyphosate.
Setting [3] is: 1X dosage (1060 g/hectare glyphosate), recorded on 10th day.
The mark [4] stands for this setting: 2X dosage (2120 g/hectare) sprayed to plants surviving 1X, recorded 10 days later.
[5] abbreviates: 5X dosage (5300 g/hectare) sprayed to plants surviving 2X, recorded 10 days later.
Setting [6] is: 20X dosage (21200 g/hectare) sprayed to plants surviving 5X, recorded 10 days later.
The mark [7] stands for this setting: culture media containing 20 mM glyphosate.

Numbering of substitutions follows the chain as printed.

B1: G0: wild-type soybean EPSPS represented by SEQ ID NO: 18; control group of Example 7 (protein)
chain: MAAAEKPSTAPEIVLEPIKDISGTITLPGSKSLSNRILLLAALSEGTTVVDNLLYSEDIHYMLGALRTLGLRVEDDQTTKQAIVEGCGGLFPTIKESKDEINLFLGNAGTAMRPLTAAVVAAGGNASYVLDGVPRMRERPIGDLVAGLKQLGADVDCFLGTNCPPVRVNGKGGLPGGKVKLSGSVSSQYLTALLMAAPLALGDVEIEIVDKLISVPYVEMTLKLMERFGVSVEHSGDWDKFLVHGGQKYKSPGNAFVEGDASSASYFLAGAAVTGGTITVNGCGTSSLQGDVKFAEVLEKMGAKVTWSENSVTVTGPPQDSSGQKVLQGIDVNMNKMPDVAMTLAVVALFANGQTTIRDVASWRVKETERMIAICTELRKLGATVEEGPDYCVITPPEKLNVTAIDTYDDHRMAMAFSLAACGDVPVTIKDPGCTRKTFPDYFEVLERFTRH
modifications: Glycine max
In the case of B1, the “growth of transformed E. coli” value in the experiment on double knockout E. coli (setting [2]) was “substantially could not grow”. Further, in experiment [1] (setting [3]), the “% ++&+++ (percentage of plant having medium and high glyphosate resistance to the total number of plants observed)” value is listed as 0.0%; the “number of plants with resistance + (low glyphosate resistance)” value (“number … (low glyphosate resistance)” for short) is on record as 0; the “number of plants with resistance ++ (medium glyphosate resistance)” value (from here on “number … (medium glyphosate resistance)”) worked out at 0; the “number of plants with resistance +++ (high glyphosate resistance)” value (from here on “number of plants with resistance +++”) amounted to 0. The “number of plants with resistance − (no glyphosate resistance)” value (“number … (no glyphosate resistance)” for short) in experiment [1] (setting [3]) came out at 36. In experiment [1] (setting [4]), the “% ++&+++ (percentage of plant having medium and high glyphosate resistance to the total number of plants observed)” value worked out at 0.0%; the “number … (low glyphosate resistance)” value was 0; the “number … (medium glyphosate resistance)” value worked out at 0; the “number of plants with resistance +++” value is recorded as 0. Further, the “number … (no glyphosate resistance)” value in experiment [1] (setting [4]) is listed as 36. Further, in experiment [1] (setting [5]), the “% ++&+++ (percentage of plant having medium and high glyphosate resistance to the total number of plants observed)” value is given as 0.0%; the “number … (low glyphosate resistance)” value is 0; the “number … (medium glyphosate resistance)” value came to 0; the “number of plants with resistance +++” value is given as 0. In experiment [1] (setting [5]), the “number … (no glyphosate resistance)” value is 36. Also, in experiment [1] (setting [6]), the “% ++&+++ (percentage of plant having medium and high glyphosate resistance to the total number of plants observed)” value is recorded as 0.0%; the “number … (low glyphosate resistance)” value is given as 0; the “number … (medium glyphosate resistance)” value was 0; the “number of plants with resistance +++” value came to 0. Also, the “number … (no glyphosate resistance)” value in experiment [1] (setting [6]) is 36. For the same molecule, the “glyphosate resistance of transformed rice seedlings (in words)” value in experiment [1] was “had no resistance and died”.

B2: G2: single-mutation soybean EPSPS mutant, SEQ ID NO: 22, only mutation P114(101)S but no K98(85)T (protein)
chain: B1 chain with P114S
modifications: Glycine max EPSPS mutant with mutation P114(101)S
Regarding B2, the “growth of transformed E. coli” value in the experiment with double knockout E. coli (setting [7]) is given as “could grow”. Moreover, in experiment [1] (setting [3]), the “% ++&+++ (percentage of plant having medium and high glyphosate resistance to the total number of plants observed)” value is 47.1%; the “number … (low glyphosate resistance)” value was 6; the “number … (medium glyphosate resistance)” value is given as 5; the “number of plants with resistance +++” value was determined as 3. Also, the “number … (no glyphosate resistance)” value in experiment [1] (setting [3]) came out at 3. Besides, in experiment [1] (setting [4]), the “% ++&+++ (percentage of plant having medium and high glyphosate resistance to the total number of plants observed)” value came to 0.0%; the “number … (low glyphosate resistance)” value came out at 0; the “number … (medium glyphosate resistance)” value amounted to 0; the “number of plants with resistance +++” value was determined as 0. Moreover, the “number … (no glyphosate resistance)” value in experiment [1] (setting [4]) was determined as 17. Also, in experiment [1], the “glyphosate resistance / survival of transformed rice seedlings (in words)” value is on record as “all rice seedlings containing the soybean EPSPS mutant G2 died” and the “glyphosate resistance of transformed rice seedlings (in words)” value is “certain resistance to glyphosate”. Besides, in experiment [1] (setting [5]), the “% ++&+++ (percentage of plant having medium and high glyphosate resistance to the total number of plants observed)” value is 0.0%; the “number … (low glyphosate resistance)” value is reported as 0; the “number … (medium glyphosate resistance)” value was 0; the “number of plants with resistance +++” value worked out at 0. Further, the “number … (no glyphosate resistance)” value in experiment [1] (setting [5]) turned out to be 17. Also, in experiment [1] (setting [6]), the “% ++&+++ (percentage of plant having medium and high glyphosate resistance to the total number of plants observed)” value is reported as 0.0%; the “number … (low glyphosate resistance)” value worked out at 0; the “number … (medium glyphosate resistance)” value stood at 0; the “number of plants with resistance +++” value turned out to be 0. Besides, the “number … (no glyphosate resistance)” value in experiment [1] (setting [6]) came to 17.

B3: G1: single-mutation soybean EPSPS mutant, SEQ ID NO: 20, only mutation K98(85)T (protein)
chain: B1 chain with K98T
modifications: Glycine max EPSPS mutant with mutation K98(85)T
Turning to B3, the “growth of transformed E. coli” value in the experiment on double knockout E. coli (setting [2]) is “obviously superior to the control group (G0)”. Moreover, in experiment [1] (setting [3]), the “% ++&+++ (percentage of plant having medium and high glyphosate resistance to the total number of plants observed)” value stood at 5.4%; the “number … (low glyphosate resistance)” value is given as 6; the “number … (medium glyphosate resistance)” value is 2; the “number of plants with resistance +++” value came to 0. In addition, the “number … (no glyphosate resistance)” value in experiment [1] (setting [3]) is on record as 29. Moreover, in experiment [1] (setting [4]), the “% ++&+++ (percentage of plant having medium and high glyphosate resistance to the total number of plants observed)” value was found to be 0.0%; the “number … (low glyphosate resistance)” value stood at 4; the “number … (medium glyphosate resistance)” value was 0; the “number of plants with resistance +++” value was 0. Further, the “number … (no glyphosate resistance)” value in experiment [1] (setting [4]) worked out at 33. For the same molecule, in experiment [1], the “glyphosate resistance / survival of transformed rice seedlings (in words)” value is “some of the rice seedlings transformed by G1 still survived” and the “glyphosate resistance of transformed rice seedlings (in words)” value is “obviously superior to that of G0”. Further, in experiment [1] (setting [5]), the “% ++&+++ (percentage of plant having medium and high glyphosate resistance to the total number of plants observed)” value is 0.0%; the “number … (low glyphosate resistance)” value was found to be 0; the “number … (medium glyphosate resistance)” value was determined as 0; the “number of plants with resistance +++” value came to 0. Moreover, in experiment [1] (setting [5]), the “number … (no glyphosate resistance)” value came to 37. In experiment [1] (setting [6]), the “% ++&+++ (percentage of plant having medium and high glyphosate resistance to the total number of plants observed)” value is 0.0%; the “number … (low glyphosate resistance)” value was 0; the “number … (medium glyphosate resistance)” value is recorded as 0; the “number of plants with resistance +++” value came out at 0. For the same molecule, the “number … (no glyphosate resistance)” value in experiment [1] (setting [6]) is 37.

B4: G3: soybean EPSPS mutant, SEQ ID NO: 24, two mutations K98(85)T and P114(101)S (protein)
chain: B1 chain with K98T, P114S
modifications: Glycine max EPSPS mutant with mutations K98(85)T and P114(101)S
As for B4, in the experiment with double knockout E. coli (setting [7]), the “growth of transformed E. coli” value is “superior to that of Experiment Group 2 (G2)”. In experiment [1] (setting [3]), the “% ++&+++ (percentage of plant having medium and high glyphosate resistance to the total number of plants observed)” value amounted to 45.2%; the “number … (low glyphosate resistance)” value is 1; the “number … (medium glyphosate resistance)” value is on record as 9; the “number of plants with resistance +++” value was 5. Further, the “number … (no glyphosate resistance)” value in experiment [1] (setting [3]) came out at 16. Besides, in experiment [1] (setting [4]), the “% ++&+++ (percentage of plant having medium and high glyphosate resistance to the total number of plants observed)” value was 19.4%; the “number … (low glyphosate resistance)” value was 5; the “number … (medium glyphosate resistance)” value amounted to 6; the “number of plants with resistance +++” value stood at 0. Also, in experiment [1] (setting [4]), the “number … (no glyphosate resistance)” value is 20. Besides, in experiment [1] (setting [5]), the “% ++&+++ (percentage of plant having medium and high glyphosate resistance to the total number of plants observed)” value was 0.0%; the “number … (low glyphosate resistance)” value came to 10; the “number … (medium glyphosate resistance)” value came to 0; the “number of plants with resistance +++” value is 0. The “number … (no glyphosate resistance)” value in experiment [1] (setting [5]) worked out at 21. Besides, in experiment [1] (setting [6]), the “% ++&+++ (percentage of plant having medium and high glyphosate resistance to the total number of plants observed)” value is given as 0.0%; the “number … (low glyphosate resistance)” value is 3; the “number … (medium glyphosate resistance)” value is 0; the “number of plants with resistance +++” value was 0. Also, in experiment [1] (setting [6]), the “number … (no glyphosate resistance)” value is 28. For the same molecule, in experiment [1], the “glyphosate resistance of transformed rice seedlings (in words)” value is given as “certain resistance to glyphosate”.
